# Laboratory results published in PMC12102759 (2025).
# B1: PIP5K1C peptide 642-657 (Phosphatidylinositol 4-phosphate 5-kinase type-1 gamma), 16-mer library wild type / TLN1 PTB (TLN1 Phosphotyrosine-binding (PTB) domain, residues 309-401) (parent complex)
# chain 1: TDERSWVYSPLHYSAQ
# chain 2: GVSFFLVKEKMKGKNKLVPRLLGITKECVMRVDEKTKEVIQEWNLTNIKRWAASPKSFTLDFGDYQDGYYSVQTTEGEQIAQLIAGYIDIILK
# Variants of: B1
# Assay: proteomic peptide phage display deep mutational scan (ProP-PD DMS): M13 P8 16-mer library selected against immobilised GST-tagged bait for four days (rounds), NGS of the eluted pools per day and pseudo-replica; bait immobilised on MaxiSorp plates (10 µg), library pre-cleared on GST, 2 h binding at 4 °C, five washes; one round per day, days 1-4; value from days 2 and 3
row,Variant,screen value
1,chain 1 L11I,"0.00188 average fractional NGS count over selection days 2 and 3 (reads of this peptide / all reads for the bait, averaged over …"
2,chain 1 L11R,"0.00065 average fractional NGS count over selection days 2 and 3 (reads of this peptide / all reads for the bait, averaged over …"
3,chain 1 L11Y,"0.000186 average fractional NGS count over selection days 2 and 3 (reads of this peptide / all reads for the bait, averaged over …"
4,chain 1 L11A,"0.000511 average fractional NGS count over selection days 2 and 3 (reads of this peptide / all reads for the bait, averaged over …"
5,chain 1 L11V,"0.00105 average fractional NGS count over selection days 2 and 3 (reads of this peptide / all reads for the bait, averaged over …"
6,chain 1 L11H,"0.000309 average fractional NGS count over selection days 2 and 3 (reads of this peptide / all reads for the bait, averaged over …"
7,chain 1 T1V,"0.00105 average fractional NGS count over selection days 2 and 3 (reads of this peptide / all reads for the bait, averaged over …"
8,chain 1 T1D,"0.00201 average fractional NGS count over selection days 2 and 3 (reads of this peptide / all reads for the bait, averaged over …"
9,chain 1 T1N,"0.00021 average fractional NGS count over selection days 2 and 3 (reads of this peptide / all reads for the bait, averaged over …"
10,chain 1 T1E,"0.00477 average fractional NGS count over selection days 2 and 3 (reads of this peptide / all reads for the bait, averaged over …"
11,chain 1 T1W,"0.00109 average fractional NGS count over selection days 2 and 3 (reads of this peptide / all reads for the bait, averaged over …"
12,chain 1 T1K,"0.001 average fractional NGS count over selection days 2 and 3 (reads of this peptide / all reads for the bait, averaged over …"
13,chain 1 T1L,"0.000574 average fractional NGS count over selection days 2 and 3 (reads of this peptide / all reads for the bait, averaged over …"
14,chain 1 T1G,"0.00259 average fractional NGS count over selection days 2 and 3 (reads of this peptide / all reads for the bait, averaged over …"
15,chain 1 T1I,"0.000851 average fractional NGS count over selection days 2 and 3 (reads of this peptide / all reads for the bait, averaged over …"
16,chain 1 T1H,"0.000767 average fractional NGS count over selection days 2 and 3 (reads of this peptide / all reads for the bait, averaged over …"
17,chain 1 T1F,"0.0018 average fractional NGS count over selection days 2 and 3 (reads of this peptide / all reads for the bait, averaged over …"
18,chain 1 S5A,"0.0049 average fractional NGS count over selection days 2 and 3 (reads of this peptide / all reads for the bait, averaged over …"
19,chain 1 S5L,"0.00637 average fractional NGS count over selection days 2 and 3 (reads of this peptide / all reads for the bait, averaged over …"
20,chain 1 S5T,"0.0143 average fractional NGS count over selection days 2 and 3 (reads of this peptide / all reads for the bait, averaged over …"
21,chain 1 S5D,"0.00879 average fractional NGS count over selection days 2 and 3 (reads of this peptide / all reads for the bait, averaged over …"
22,chain 1 S5E,"0.00528 average fractional NGS count over selection days 2 and 3 (reads of this peptide / all reads for the bait, averaged over …"
23,chain 1 S5M,"0.00508 average fractional NGS count over selection days 2 and 3 (reads of this peptide / all reads for the bait, averaged over …"
24,chain 1 S5N,"0.000275 average fractional NGS count over selection days 2 and 3 (reads of this peptide / all reads for the bait, averaged over …"
25,chain 1 S5P,"0.00403 average fractional NGS count over selection days 2 and 3 (reads of this peptide / all reads for the bait, averaged over …"

row,Variant,screen value
1,chain 1 S5W,"0.000786 average fractional NGS count over selection days 2 and 3 (reads of this peptide / all reads for the bait, averaged over …"
2,chain 1 S5I,"0.00725 average fractional NGS count over selection days 2 and 3 (reads of this peptide / all reads for the bait, averaged over …"
3,chain 1 S5R,"0.00066 average fractional NGS count over selection days 2 and 3 (reads of this peptide / all reads for the bait, averaged over …"
4,chain 1 S5K,"0.00079 average fractional NGS count over selection days 2 and 3 (reads of this peptide / all reads for the bait, averaged over …"
5,chain 1 P10H,"0.00282 average fractional NGS count over selection days 2 and 3 (reads of this peptide / all reads for the bait, averaged over …"
6,chain 1 P10M,"0.00123 average fractional NGS count over selection days 2 and 3 (reads of this peptide / all reads for the bait, averaged over …"
7,chain 1 P10Y,"0.000349 average fractional NGS count over selection days 2 and 3 (reads of this peptide / all reads for the bait, averaged over …"
8,chain 1 P10K,"0.00642 average fractional NGS count over selection days 2 and 3 (reads of this peptide / all reads for the bait, averaged over …"
9,chain 1 P10E,"0.000515 average fractional NGS count over selection days 2 and 3 (reads of this peptide / all reads for the bait, averaged over …"
10,chain 1 P10Q,"0.001 average fractional NGS count over selection days 2 and 3 (reads of this peptide / all reads for the bait, averaged over …"
11,chain 1 P10D,"0.00117 average fractional NGS count over selection days 2 and 3 (reads of this peptide / all reads for the bait, averaged over …"
12,chain 1 P10R,"0.000767 average fractional NGS count over selection days 2 and 3 (reads of this peptide / all reads for the bait, averaged over …"
13,chain 1 P10F,"0.0019 average fractional NGS count over selection days 2 and 3 (reads of this peptide / all reads for the bait, averaged over …"
14,chain 1 P10L,"0.00637 average fractional NGS count over selection days 2 and 3 (reads of this peptide / all reads for the bait, averaged over …"
15,chain 1 P10A,"0.00236 average fractional NGS count over selection days 2 and 3 (reads of this peptide / all reads for the bait, averaged over …"
16,chain 1 P10T,"0.00133 average fractional NGS count over selection days 2 and 3 (reads of this peptide / all reads for the bait, averaged over …"
17,chain 1 V7T,"0.0104 average fractional NGS count over selection days 2 and 3 (reads of this peptide / all reads for the bait, averaged over …"
18,chain 1 V7G,"0.000623 average fractional NGS count over selection days 2 and 3 (reads of this peptide / all reads for the bait, averaged over …"
19,chain 1 V7H,"0.000523 average fractional NGS count over selection days 2 and 3 (reads of this peptide / all reads for the bait, averaged over …"
20,chain 1 V7Y,"0.00645 average fractional NGS count over selection days 2 and 3 (reads of this peptide / all reads for the bait, averaged over …"
21,chain 1 V7L,"0.0042 average fractional NGS count over selection days 2 and 3 (reads of this peptide / all reads for the bait, averaged over …"
22,chain 1 V7M,"0.0016 average fractional NGS count over selection days 2 and 3 (reads of this peptide / all reads for the bait, averaged over …"
23,chain 1 V7K,"0.00287 average fractional NGS count over selection days 2 and 3 (reads of this peptide / all reads for the bait, averaged over …"
24,chain 1 V7I,"0.000515 average fractional NGS count over selection days 2 and 3 (reads of this peptide / all reads for the bait, averaged over …"
25,chain 1 V7A,"0.0345 average fractional NGS count over selection days 2 and 3 (reads of this peptide / all reads for the bait, averaged over …"

row,Variant,screen value
1,chain 1 V7W,"0.00263 average fractional NGS count over selection days 2 and 3 (reads of this peptide / all reads for the bait, averaged over …"
2,chain 1 V7D,"0.000439 average fractional NGS count over selection days 2 and 3 (reads of this peptide / all reads for the bait, averaged over …"
3,chain 1 V7E,"0.00195 average fractional NGS count over selection days 2 and 3 (reads of this peptide / all reads for the bait, averaged over …"
4,chain 1 S9P,"0.000206 average fractional NGS count over selection days 2 and 3 (reads of this peptide / all reads for the bait, averaged over …"
5,chain 1 S9A,"0.000707 average fractional NGS count over selection days 2 and 3 (reads of this peptide / all reads for the bait, averaged over …"
6,chain 1 W6V,"0.00015 average fractional NGS count over selection days 2 and 3 (reads of this peptide / all reads for the bait, averaged over …"
7,chain 1 W6P,"0.000161 average fractional NGS count over selection days 2 and 3 (reads of this peptide / all reads for the bait, averaged over …"
8,chain 1 W6N,"0.00011 average fractional NGS count over selection days 2 and 3 (reads of this peptide / all reads for the bait, averaged over …"
9,chain 1 S14V,"0.0171 average fractional NGS count over selection days 2 and 3 (reads of this peptide / all reads for the bait, averaged over …"
10,chain 1 S14G,"0.000766 average fractional NGS count over selection days 2 and 3 (reads of this peptide / all reads for the bait, averaged over …"
11,chain 1 S14H,"0.00391 average fractional NGS count over selection days 2 and 3 (reads of this peptide / all reads for the bait, averaged over …"
12,chain 1 S14F,"0.00254 average fractional NGS count over selection days 2 and 3 (reads of this peptide / all reads for the bait, averaged over …"
13,chain 1 S14Y,"0.00168 average fractional NGS count over selection days 2 and 3 (reads of this peptide / all reads for the bait, averaged over …"
14,chain 1 S14R,"0.000219 average fractional NGS count over selection days 2 and 3 (reads of this peptide / all reads for the bait, averaged over …"
15,chain 1 S14T,"0.012 average fractional NGS count over selection days 2 and 3 (reads of this peptide / all reads for the bait, averaged over …"
16,chain 1 S14M,"0.00342 average fractional NGS count over selection days 2 and 3 (reads of this peptide / all reads for the bait, averaged over …"
17,chain 1 S14W,"0.00882 average fractional NGS count over selection days 2 and 3 (reads of this peptide / all reads for the bait, averaged over …"
18,chain 1 S14Q,"0.00119 average fractional NGS count over selection days 2 and 3 (reads of this peptide / all reads for the bait, averaged over …"
19,chain 1 A15G,"0.000489 average fractional NGS count over selection days 2 and 3 (reads of this peptide / all reads for the bait, averaged over …"
20,chain 1 A15P,"0.00282 average fractional NGS count over selection days 2 and 3 (reads of this peptide / all reads for the bait, averaged over …"
21,chain 1 A15D,"0.00285 average fractional NGS count over selection days 2 and 3 (reads of this peptide / all reads for the bait, averaged over …"
22,chain 1 A15S,"0.001 average fractional NGS count over selection days 2 and 3 (reads of this peptide / all reads for the bait, averaged over …"
23,chain 1 A15L,"0.00142 average fractional NGS count over selection days 2 and 3 (reads of this peptide / all reads for the bait, averaged over …"
24,chain 1 A15I,"0.000328 average fractional NGS count over selection days 2 and 3 (reads of this peptide / all reads for the bait, averaged over …"
25,chain 1 A15M,"0.00017 average fractional NGS count over selection days 2 and 3 (reads of this peptide / all reads for the bait, averaged over …"
